From paper PMC2757915, “The Elongator Complex Interacts with PCNA and Modulates Transcriptional Silencing and Sensitivity to DNA Damage Agents” (PLoS Genetics, 2009) come the findings set out here.

This assay addresses T1, Elongator complex purified from yeast cells using Elp5-TAP (S. cerevisiae (endogenous in W303 yeast …, UniProt Q06706 1-1349; P42935 1-788; Q02908 1-557; Q02884 1-456; P38874 1-309; Q04868 …).
T1 construct: Elp1, S. cerevisiae; Elp2, S. cerevisiae; Elp3 (Kat9), S. cerevisiae; Elp4, S. cerevisiae; Elp5, S. cerevisiae; Elp6, S. cerevisiae; Six-subunit complex; also called Elp3 complex; Elp1-Elp6 complex; copies: + + + + +
The experiment in a line: co-IP; in vitro: 2.5 µg recombinant PCNA incubated with different amounts of Elp3 complex (purified with Elp5-TAP) in TBS with 0.01% NP-40 at 4°C for 2 hrs; precipitated with polyclonal anti-PCNA antibodies and Protein G Sepharose; Western blot for PCNA and CBP; pre-bleed sera as negative control. As to conditions: both partners purified.

B1: recombinant PCNA (natural protein, S. cerevisiae, UniProt P15873 1-258, looked up)
chain: MLEAKFEEASLFKRIIDGFKDCVQLVNFQCKEDGIIAQAVDDSRVLLVSLEIGVEAFQEYRCDHPVTLGMDLTSLSKILRCGNNTDTLTLIADNTPDSIILLFEDTKKDRIAEYSLKLMDIDADFLKIEELQYDSTLSLPSSEFSKIVRDLSQLSDSINIMITKETIKFVADGDIGSGSVIIKPFVDMEHPETSIKLEMDQPVDLTFGAKYLLDIIKGSSLSDRVGIRLSSEAPALFQFDLKSGFLQFFLAPKFNDEE
notes: PCNA, encoded by POL30, S. cerevisiae; expressed from a plasmid in E. coli; No tag is named; purified by conventional chromatography; source: E. coli BL21(DE3), purified (Q-Sepharose, hydroxyapatite, Superdex 200)
On to B1, for which the binding result is on record as “binds”.
